From US8536117B2, “Oxidant resistant apolipoprotein A-1 and mimetic peptides” (The Cleveland Clinic Foundation, priority 2007, dated 2013) come the findings set out here.

Data set [1] relates to RAW 264.7 murine macrophage cells. Briefly: MPO/H2O2/Cl- modification of ApoA1, then ABCA1-dependent cholesterol efflux assay. In kind it is cell-based. The conditions noted are these: for ABCA1-dependent cholesterol acceptor activity after MPO modification: MPO/H2O2/Cl- system at varying (increasing) H2O2:ApoA1 mole ratios; for MPO mediated loss of cholesterol acceptor activity, high dose: H2O2:apoAI = 15:1, 3MV with or without the N-terminal methionine; for loss of cholesterol acceptor activity: MPO modification at H2O2:ApoA1 ratio of 1.4. On the procedure: (§1) MPO at a final concentration of 57 nmol/L, prepared as previously described, was added to ApoA1 at 100 μg/mL (3.5 μmol/L) that had been extensively dialyzed against MPO reaction buffer. The reaction was initiated by adding hydrogen peroxide at varying mole ratios to ApoA1 in 4 aliquots at 15-minute intervals at 37° C., and continuing the incubation for 90 minutes, at which time 2 mmol/L L-methionine was added to quench the reaction. For chemical modification of ApoA1, sodium hypochlorite (NaOCI) was added to 100 μg/mL ApoA1 in MPO buffer at varying concentrations in 4 aliquots at 15 minutes intervals at 37° C. After a total incubation time of 60 minutes, 2 mmol/L L-metbionine was added to quench the reaction.
(§2) RAW 264.7 murine macrophage cells were labeled with [3H] cholesterol and treated with 0.3 mmol/L 8Br-cAMP to induce ABCA1 activity, as previously described. The cells were washed and chased for 4 hours in serum-free medium in the presence of 0.3 mmol/L 8Br-cAMP and the presence or absence of various ApoA1 preparations. The radioactivity in the chase media was determined after brief centrifugation to pellet debris. Radioactivity in the cells was determined by extraction in hexane:isopropanol (3:2) with the solvent evaporated in a scintillation vial prior to counting. The percent cholesterol efflux was calculated as 100×(medium dpm)/(medium dpm+cell dpm).

Data set [2] can be described thus: Alpha helix content by CD (K2d algorithm). It counts as physicochemical. The note with it: for loss of alpha helix content after MPO modification: MPO/H2O2 dose dependent; for alpha helix content: K2d algorithm, unmodified protein. The source says:
We examined the role of ApoA1 tryptophan residues next by altering each of the four tryptophan residues to either leucine (rh-ApoA1 4WL) or phenylalanine (rh-ApoA1 4WF). […] Thus, the loss of efflux and lipid binding activity of the 4WL variant cannot be attributed to loss of helical content.

Data set [3] concerns human low density lipoprotein. Kind of data set: Lipid binding activity assay: inhibition of phospholipase C (PLC)-mediated aggregation of LDL. It counts as biochemical. The note with it: for lipid binding activity after MPO modification: PLC mediated LDL aggregation assay, MPO at varying H2O2:ApoA1 mole ratios. On the procedure:
as §1
Lipid binding activity of ApoA1 was assessed via the inhibition of phospholipase C (PLC)-mediated aggregation of human low density lipoprotein, performed as previously described. We have previously shown that this assay give results similar to those observed by the DMPC dispersion clearance assay, but it is more sensitive and requires less ApoA1. The final concentration of apoA1 used in this assay as 12.5 μg/mL. which was sufficient to decrease the initial rate LDL aggregation by ≈75%.

The subject of data set [4] is RAW 264.7 murine macrophage cells. Kind of data set: ABCA1-dependent cholesterol efflux assay. In kind it is cell-based. The note with it: unoxidised protein/peptide, 4 hr incubation with [3H]cholesterol labeled RAW264.7 cells pretreated with 0.3 mM 8Br-cAMP. On the procedure:
ApoA1 (filled circles, solid line) and reductively methylated ApoA1 (open circles, dashed line) were subjected to modification by MPO at varying H2O2:ApoA1 mole ratios. These proteins were then assayed for ABCA1 dependent cellular cholesterol acceptor activity during a 4 hr incubation at 5 μg/ml with cholesterol labeled RAW264.7 cells, which had been treated with 0.3 mM 8Br-cAMP to induce ABCA1. Data are means±S.D. of triplicate determinations, when no bars appear, the S.D. is within the symbol.
as §2

Data set [5] can be described thus: DMPC emulsion clearance assay (lipid binding). It counts as biochemical. The conditions noted are these: 25 μg protein, 125 μg DMPC, absorbance at 325 nm, 24° C. On the procedure: FIGS. 7 (A-B) illustrate plots showing that rh-ApoA1 4WF binds lipid as well as rh-ApoA1 and its lipid binding activity is resistant to MPO mediated oxidation. A. Dimyristoyl phosphatidylcholine (DMPC) emulsions (125 μg) were prepared and incubated without addition (solid thick line) or with the addition of 25 μg rh-ApoA1 (solid thin line) or rh-ApoA1 4WF (dotted line). Lipid binding and solubilization was monitored by loss of turbidity by reading absorbance at 325 nm over time at 24° C. […] B. rh-ApoA1 (filled circles, solid line) and rh-ApoA1 4WF (open circles, dashed line) were subjected to modification by MPO at varying H2O2:ApoA1 mole ratios. These proteins were then assayed for lipid binding activity by prevention of phospholipase C dependent LDL aggregation. Data are normalized to the lipid binding activity of rh-ApoA1 treated in the absence of H2O2. Data are means±S.D. of triplicate determinations. *, p<0.05; and **, p<0.001 vs. rh-ApoA1 4WF at the same H2O2: ApoA1 mole ratio, respectively, by two tailed t-test.

In data set [6] the test system is RAW 264.7 murine macrophage cells. Kind of data set: HOCl (sodium hypochlorite) modification of ApoA1, then ABCA1-dependent cholesterol efflux assay. In kind it is cell-based. The note with it: increasing doses of HOCl (varying HOCl:ApoA1 mole ratios). On the procedure: as §1, §2

“Also recorded” adds a separate entry of the source.

For ApoA1: human plasma-derived ApoA1, the “ABCA1-dependent cholesterol acceptor activity after MPO modification” value in data set [1] is “declined in a similar fashion”. Moreover, in data set [2], the “loss of alpha helix content after MPO modification” value (“loss of alpha helix content” below) is “similarly susceptible”. Moreover, in data set [3] (apoA1 final concentration 12.5 μg/mL), the “decrease of the initial rate of LDL aggregation” value is “≈ 75%”. Moreover, the “ABCA1-dependent cholesterol acceptor activity” value in data set [4] was “robust and equivalent”.

As to “methylated ApoA1: ApoA1 subjected to reductive methylation, leading to 92% lysine modification”, the “ABCA1-dependent cholesterol acceptor activity after MPO modification” value in data set [1] is “declined in a similar fashion”. Further, the “loss of alpha helix content” value in data set [2] is “similarly susceptible”. For the same molecule, the “ABCA1-dependent cholesterol acceptor activity” value in data set [4] was “robust and equivalent”.

Take “rh-ApoA1: recombinant human ApoA1, with an additional methionine initiation codon and a 6-his tag at the N-terminus”: in data set [1], the “MPO mediated loss of cholesterol acceptor activity, high dose” value was “equally susceptible”; the “loss of cholesterol acceptor activity” value is on record as “negligible loss”; the “ABCA1-dependent cholesterol acceptor activity after MPO modification” value is “inhibited by increasing MPO induced oxidation”. In data set [2], the alpha helix content was 57% and the “loss of alpha helix content” value is given as “susceptible to loss of alpha helical content”. The “lipid binding activity after MPO modification” value in data set [3] is on record as “diminished lipid binding activity”. Further, the “lipid binding activity (DMPC clearance)” value in data set [5] is recorded as “equivalent activity”. Besides, the “ABCA1-dependent cholesterol acceptor activity” value in data set [4] is listed as “yielded ABCA1 dependent cholesterol acceptor activity”. Also, the “cholesterol acceptor (efflux) activity after HOCl treatment” value in data set [6] is given as “impaired by increasing doses of HOCl”.

B1: rh-ApoA1 3MV: rh-ApoA1 with the three internal methionines converted to valines (protein, UniProt P02647 25-267, looked up, variant M86V M112V M148V)
Apolipoprotein A-I: DEPPQSPWDRVKDLATVYVDVLKDSGRDYVSQFEGSALGKQLNLKLLDNWDSVTSTFSKLREQLGPVTQEFWDNLEKETEGLRQEVSKDLEEVKAKVQPYLDDFQKKWQEEVELYRQKVEPLRAELQEGARQKLHELQEKLSPLGEEVRDRARAHVDALRTHLAPYSDELRQRLAARLEALKENGGARLAEYHAKATEHLSTLSEKAKPALEDLRQGLLPVLESFKVSFLSALEEYTKKLNTQ
Turning to B1, in data set [1], the “MPO mediated loss of cholesterol acceptor activity, high dose” value is on record as “equally susceptible”; the “loss of cholesterol acceptor activity” value was “lost about half of its cholesterol acceptor activity”; the “ABCA1-dependent cholesterol acceptor activity after MPO modification” value was “more sensitive to loss of cholesterol acceptor activity at low molar ratios”.

B2: rh-ApoA1 4WF: rh-ApoA1 with each of the four tryptophan residues altered to phenylalanine (protein, UniProt P02647 25-267, looked up, variant W8F W50F W72F W108F)
Apolipoprotein A-I: DEPPQSPFDRVKDLATVYVDVLKDSGRDYVSQFEGSALGKQLNLKLLDNFDSVTSTFSKLREQLGPVTQEFFDNLEKETEGLRQEMSKDLEEVKAKVQPYLDDFQKKFQEEMELYRQKVEPLRAELQEGARQKLHELQEKLSPLGEEMRDRARAHVDALRTHLAPYSDELRQRLAARLEALKENGGARLAEYHAKATEHLSTLSEKAKPALEDLRQGLLPVLESFKVSFLSALEEYTKKLNTQ
On to B2, for which, in data set [1], the “ABCA1-dependent cholesterol acceptor activity after MPO modification” value is listed as “maintained this activity even at an H2O2:ApoA1 ratio of 15”. In addition, in data set [2], the alpha helix content is given as 77% and the “loss of alpha helix content” value was “susceptible to loss of alpha helical content”. In addition, the “lipid binding activity after MPO modification” value in data set [3] is given as “resistant to MPO mediated inhibition; also recorded: did not loose its lipid binding activity”. Moreover, the “lipid binding activity (DMPC clearance)” value in data set [5] (listed as 4WF variant) is “equivalent activity”. Further, in data set [4] (listed as 4WF variant), the “ABCA1-dependent cholesterol acceptor activity” value is “largely retained this activity”. Moreover, the “cholesterol acceptor (efflux) activity after HOCl treatment” value in data set [6] is “resistant to this treatment”.

B3: rh-ApoA1 4WL: rh-ApoA1 with each of the four tryptophan residues altered to leucine (protein, UniProt P02647 25-267, looked up, variant W8L W50L W72L W108L)
Apolipoprotein A-I: DEPPQSPLDRVKDLATVYVDVLKDSGRDYVSQFEGSALGKQLNLKLLDNLDSVTSTFSKLREQLGPVTQEFLDNLEKETEGLRQEMSKDLEEVKAKVQPYLDDFQKKLQEEMELYRQKVEPLRAELQEGARQKLHELQEKLSPLGEEMRDRARAHVDALRTHLAPYSDELRQRLAARLEALKENGGARLAEYHAKATEHLSTLSEKAKPALEDLRQGLLPVLESFKVSFLSALEEYTKKLNTQ
With B3, the alpha helix content in data set [2] is reported as 79%. For the same molecule, the “ABCA1-dependent cholesterol acceptor activity” value in data set [4] (listed as 4WL variant) is listed as “lost the majority of this activity”.
